The series in a line: soluble on expression in E. coli; label from the status in PepcDB or PDB records.
For the sequence “DERKRQESLIQSMFMPREILRASLSDVDLNDDGRIKAIRFAERFVAEYEPGKKMKGLYLHGSFGVGKTYLLAAIANELAKRNVSSLIVYVPELFRELKHSLQDQTMNEKLDYIKKVPVLMLDDLGAEAMSSWVRDDVFGPILQYRMFENLPTFFTSNFDMQQLAHHLTYSQRGEEEKVKAARIMERIRYLAYPIEITGPNRR”, the “soluble on expression in E. coli” value is on record as “soluble”.
Turning to “MGSDKIHHHHHHMVKCIEEYVQVDDFKMYSKVFQGKKLQPVIIMEAGYGDYSKTWDHIAEELTEFGTVLTYDRAGLGKSGNSSKRRISSEMIKDLRSCLEKLQLKPPYIFVGHSFGGINARLFATFYSEDMLGIVLVDSTPENYKKDFLLIMSPEFQEAYYKQFVHESSYKEFMFSLGEADKHCQSMRNIPLVVLAAGKKAYYSQEAQMKWLQLQEELLRLSNNHKFIIAEQSGHYIQKDEPHYIIDAVKWIIEVGEG”, the “soluble on expression in E. coli” value is given as “not soluble”.
Under “MNNHNCFLTPLQQKFMQILSDYERDPKSIQIHEESDQMDVVISYFKLLLAEKSRLLQYGQANFSVHLIDEEIGRLFMAPISMADIGILEECGREALRFTDLGAMFSDSDDSMHSDEDEVTLTESIRIPVETYPTYNFIGRIIGPRGTTAKQLEKDTGCRIMIRGNHSNKMYGNALHKTHGDGSQDAIDLPLRVIVETSGPRREATARITAALETVQVLLVPPPDGRDELKRRQLVELAIMNGTYRPSCSRIDHN” stands “not soluble”; under “MSLAEQATKSVLFVCLGNICRSPIAEAVFRKLVTDQNISENWVIDSGAVSDWNVGRSPDPRAVSCLRNHGIHTAHKARQITKEDFATFDYILCMDESNLRDLNRKSNQVKTCKAKIELLGSYDPQKQLIIEDPYYGNDSDFETVYQQCVRCCRAFLEKAHEGHHHHHH”, “soluble”; under “MGHHHHHHMSEFYKLAPVDKKGQPFPFDQLKGKVVLIVNVASKCGFTPQYKELEALYKRYKDEGFTIIGFPCNQFGHQEPGSDEEIAQFCQLNYGVTFPIMKKIDVNGGNEDPVYKFLKSQKSGMLGLRGIKWNFEKFLVDKKGKVYERYSSLTKPSSLSETIEELLKEVE”, “soluble”.
For the sequence “MGSDKIHHHHHHMTVHWRERVGNQRDWVWRGWRTRYTYIRPSQEGQEKTPLILLHGFGASIGHWRHNLEVLGESHTVYALDMLGFGGSEKAPANYSIELWVEQVYDFWRAFIRQPVVLIGNSNGSLISLAAAAAHPDMVKGIVMMSLPDPSLEQEMIPPFLRPVVTTIKNIVASPIFLKPVFYFVRRPSILRRWAGIAYANPAAITDELVDILAGPPQDRGSARAFSALFKAAIGVNFSPSVKAILPTLQIPMLLIWGNKDRFVPPILANQFAQYNEKLQLLNLDDVGHCPHDECPEQVNKAILAWMDKSLGDY”, the “soluble on expression in E. coli” value is “not soluble”.
Under “PNILRGLLLGYSEKMVELEHKVEVMQPTIDAFDRIATANGSLCLTDAAKALQMRPKDFISFLSQKQWIYKRTGSAHYVGYQDKVQAGFLEHKVTEVTRGDGSNKITEQVRVTPKGLTRLSKLLGNNHV” stands “not soluble”; under “MAHHHHHHMPRNRSSGDDGGGGGKRGGRYAAVVEKGENAWKREWSSFMSGVNLKRLRDGTSGVTLKASADIERQLVAREAAPSSSSVAGEHDNGNDVEVNADGIPLGAIASHASFSYLFSSPAERRAERDARERAEAERRQAHKRELMAKKDPLSVLSKHQRAMHNAEQRGLQLDGMTRKERRSFLHLTVTEAQRKAEEQSREFKLHDLMDEKLAWYQQGPHPIDLIAEKLVRRKAEKKGKQLGLKYNYLAPHPSWLAKRAQRRRESLLVGLGKRLIFLERVTGEDKDDATTVPSSEVMVTDPLHHLTVPLSEMGRLLGQHGSASLSAAAAAAADADALVTAAAGSSSGDDIEDVKGADEEGAQHLGGEVDRGHRGDVTAARKKAVSASSAASSAGGCSSASPGKRASGEAGDDGVGNDAAQMRLPDVVVLQDPSRIATSLVRTVARDRTTALAIQQINRTTNFLSSGLVKGPSLRPEDALPGNGLSPRGLGAAPAAAALTPSPKSSMVAASMQDSAANSTKGAATTSRGASAAGRGRRRVRVADGEEEGGERRRHRRGADVSAGESQTKTSKPTASPSPRPRGARPPPTHTHELRDITSRSGPSKSQGGQVSSSKTKRQRANSRYD”, “not soluble”; under “MSADEFILQQKVHALYSNHRSWLQRWLYRKLGNACDAADLVQDTFISVITGGYADDIREPKPFLATIAGRLVAHRWRRNQLETAYLEALAALPVELMPSPEAHVLALEALLEIDRALDGLPTRVKEAFLLAHLEELSYAQIAERLNVSTSSVKQYLTRANRQCLFALSV”, “not soluble”.
As to “GPGSMINWCEGCSNRNNNTQPELVLGNETFVTHGVAAPDKGSKYPLGGPFRLRESRTGNYITDKELFQDHWTLLYFGFSKCAEVCPSTLRFITDVMKACDEKLAGDKNLSTEAARLQAVFLSVDSRRDTPEVLEGFVSKYDPRVRGLTGTSKEIEQAARAWRVYYSSIDETDEEKSAREAKGVPMVGADDDTYQLDHSSAIYLVGVDGKLKDFFFKEMGVADAVGRLEVHLQDVYGFKDTRG”, the “soluble on expression in E. coli” value was “not soluble”.
Under “MAEEAVDARGEGARFIEKVKSICGNTSRILYKYDEPTDPRYGYLPHERPLDVYLRYGMIVVDKPPGPTSHEVVAWIKRMLGVSRAGHGGTLEPLPAPRGLRGGDILK” stands “soluble”; under “MANSMIFKAEGNQLIAERVFDAPRELVFKMFTEAEHLKNWWGPRGWDLTVCNIDFRPGGSWHFCMKCVDENQGDFYGYESWGKALYREIVDGEKIVYVDYFSDSEGNLSEEMPAAEITLTFIDLGGKTKIVNQVEYPSAEELQKGLDMGMEQGFTETWDRLVEYLQDIQLEHHHHHH”, “not soluble”.
Under “MAQRYKRMSSTDINEYMPENLAKAIANPLFPALDSLLRAGRHVSSDDLDNHAFLSDFEPDLALFYQRYHTELVRAPEGFFYLRPRSTSLINRSVLSELDMLVGKVLCFLYLSPERLAHEGIFTNQELYDELLTLVEEKKLMKLVTNRASGSDLDREKLFEKVRTSLRRLRRLGMVITIGDTGKFRITEAVFRFGADVRLGGDVREAQLRLIRDGEAVVHTPEPSQQSLLENPTAEYDEEQTEWEDEALEHHHHHH” stands “soluble”; under “MGSDKIHHHHHHMKKATLKDIAEYFGVSISTVSRALSGKPGVSSELREKILEKAREIGYTPNLMALGLKKGNTRTVGVLIPELSANFFADIVSSIEKSLFHLGYRLILCSTDDDPVKEREHLQLLLDQKVEGILSAPVNVKENKDIYNSIINHFKIPVVFFDRLVEGVDSDFVISDNREGMEILVNYLVKHGHKKIGLIHPLRGSFTGEERLKGFLLFKDSIEIREEWIRDGRSSEQGGYESFLRIMTSQERPTAIVIGNNLMTLGVLKAAKELNIKIPEDISLVSFDDAYWNEIFDPPITCVRQDPQQIGLIAATILLDRMKNRKKPSPRMQVVLKVKFVERSSVRTIKTLKDFS”, “not soluble”; under “MELAVHDATEDGAGYATAASSWVVVEPEFVVDVTDIRSFVQCPRLYYLNKLSGLPLKYPVTKGTIVHEVFGDLLRGRDLEASVAQRVDEAGLELGLLGRSRAEVEADVRDNASAIEGWLQQGRLTDEDEWRSEYTLVSERFGIKGRCDAIRRGMPVELKTGKNTNREPRFHDKVQAACYALMLDEHGVPADTGTLLYTKNAAVDRSEASGDLSPAKEFSIGRGFLEFVVRERNHLAALEASDGPPTGYEADAKCDYCFEQDTCMVVSGRLDQESKAGRIGDPVPAEERAYFDELYDAIEAERGAIHDEYRKLWEQSPDERAADDRAVVGLSPAEQTELPDGRWRLTATRPGSAASKIREGDRVLASDGDPVAGRAEMARVERLDADRVEVTTDEPVSLCRLDVYPSELSVDRMLTALHDAVLKSDQRRTDLLFDRASPRFEGGDHDLIPNNDAQNAAVNRALNAEDFALVHGPPGTGKTYTIATLVQAFVARGDRVLVSAFTNRAVDNALDALRQQGHEDIVRVGTETGVRADMQDLRLDRSGDPGERAAALRSAPVVAATTATCGSRILRELEFDVVLVDEASQLTEPDTLAAINRGARFVLVGDHEQLPPVVRSGGRLSKSLFERLHETYPEASVMLDQQYRMSQRIQAFSSREFYDGQLRPASSEVAGQRLTDVGVDPGGAVHGGVTFYDVPGTDDAHVDPAEADRVADVVTAYVDAGLDPGEIGVIAPFRAQVAEIGRRTPAGVAVDTVDRFQGSSKEVIVVSFVARGTLEGPIFEDHRRVNVALSRAKKSLVLVGDERALRSEPLYDRMIDWADMELEHHHHHH”, “not soluble”.
For “MSSVPKNKDELELAINSIFPKLMVDYRSIPESKARKVGVEGNVKGTFISVSDTVAYLIGWGKLVLKWHRLKSQNQHVDFPETGYKWNQLGLLAESFHEEYRDWKYSDLLVELEFTINEILLLISSLSDHELYGVAWYEQWTLGRMIQFNTSSPMKNMRTKVRRFNREFTLEHHHHHH”, the “soluble on expression in E. coli” value is listed as “not soluble”.
For the sequence “MPTVLRWTRTMCKRPTCRVRQAWLVLPITGRWPSGGVSMKHACMLDSALPKPSQHSLRRQLNAIKREQFPWMSEVTKNAPQMAIIQLGRAFQNFFAGRAKYPKFRKKGMHDRFTLTNDQFDLEASRIRIPRLGWVRMRETLRFAGKIMLATVSRVAGRWFVSITVDVPDPSHLPQAENQGTVGVDLGVLVLATLSTGETVCGPRPHRALLGRVCRLSRSVLRKVKGSANRHKAKATLANLHARIAAIRLDALHTLTSDLTRRFHTIGIENLNVKGMLRNRHLARSIADIGFFEFRRQLEYKAMMRGGQVVVANRFFASSKRCLTCGHTLNELPLSVRQWACPACGARHDRDVNAAVNLKNMAVSSTVSACGEEGAGPRRKTAVGEAGSQLLEHHHHHH”, the “soluble on expression in E. coli” value is “not soluble”.
Under “MAQEEEDVRDYNLTEEQKAIKAKYPPVNRKYEYLDHTADVQLHAWGDTLEEAFEQCAMAMFGYMTDTGTVEPLQTVEVETQGDDLQSLLFHFLDEWLYKFSADEFFIPRVGRRIFIVQAPSGNRSQSNNIFSNAGL” stands “soluble”.
As to “MAGDPMVLKRIRDMFVASVHEGLDKMENPKVMLNQYVRDMESDIAKAKQTIVKQHTIAYQFKKKYEEAAEVAGKRKNQAQLAFDAGEEELAKKALTEMKYLEGKAAEHKASYEQANSQLADLKEQLAALETKLQDVKDKKQALIARANAAKAKEHMNTTFDKIDSESAYREFLRIENRIEEMEIRANYSKSAEAGTELTRKEFADDVEAEIEKMRTLSLQKSDQTKAANELEHHHHHH”, the “soluble on expression in E. coli” value is “soluble”.
As for “MTVTLTCRFKLELSKDQKQQFLDIATAYTNAVNYVLEQNLKDKSTNVKKLHRLYYKTIREDFDLPAQMAINVNRDVSAMYKTLWAQFKELKRRKPDSKAVKKFWDKPPKRKSLIVKYTYNRTASFKKINGEWHASLSTLQGRIKWIPMKGWSKHFEYLKSCKIGDPILTYDKSSKTFFLLVPVTLEVQEHQPKEIVGVDVGERHIAAVASTKGTRYLIDLPEEFKQRKQHYQRLRSELMSKGTRSAKRKLARISRREKRFTENVLHIIAKKLTTSHPGARFVLEDLTQIRANRITYRGKDKEARRQSEQWPFASLQQKIEYKAKLYYGVQSEKVDPSYTSQTCPRCGHVSKENRPDHGERFVCQSCGYEEHADIVGAINIALRVLAKDQQVNLEKLLGAVVSRPDAPRLGLEHHHHHH”, the “soluble on expression in E. coli” value is reported as “soluble”.
Consider “IGKEKAEVELLQVDPELQAEIIATHNIALQAAVQVEEKKAREAATEAVKEVVIGEYEARYAEHEEYDRIMRDVAEILEQMEHAEVRRLITEDKIRPDGRRVDEIRP”, for which the “soluble on expression in E. coli” value is “not soluble”.

For the origin of these results see the DeepSol protein solubility set.
